Experimental data from article PMC3847938, “Biochemical and kinetic characterisation of a novel xylooligosaccharide-upregulated GH43 β-D-xylosidase/α-L-arabinofuranosidase (BXA43) from the probiotic Bifidobacterium animalis subsp. lactis BB-12” (AMB Express, 2013).
Values belong to the molecule of their own block, whether it stands above or below them.

Key:
BXA43 = target: T1, BXA43 (Bifidobacterium animalis, UniProt B8DTK7); experiment: p-nitrophenol release at […] nm, initial rates, fit with substrate inhibition; type: biochemical; settings: 50 mM Na-acetate pH 5.2, 40 °C; substrate inhibition by pNPX itself (uncompetitive), second site
T1 construct: gene xynB; full-length ORF 541 residues, C-terminal His-tag, pET24(+), E. coli BL21(DE3); theoretical mass 61,774 Da, about 62 kDa on SDS-PAGE
T1 sequence (B8DTK7 1-541): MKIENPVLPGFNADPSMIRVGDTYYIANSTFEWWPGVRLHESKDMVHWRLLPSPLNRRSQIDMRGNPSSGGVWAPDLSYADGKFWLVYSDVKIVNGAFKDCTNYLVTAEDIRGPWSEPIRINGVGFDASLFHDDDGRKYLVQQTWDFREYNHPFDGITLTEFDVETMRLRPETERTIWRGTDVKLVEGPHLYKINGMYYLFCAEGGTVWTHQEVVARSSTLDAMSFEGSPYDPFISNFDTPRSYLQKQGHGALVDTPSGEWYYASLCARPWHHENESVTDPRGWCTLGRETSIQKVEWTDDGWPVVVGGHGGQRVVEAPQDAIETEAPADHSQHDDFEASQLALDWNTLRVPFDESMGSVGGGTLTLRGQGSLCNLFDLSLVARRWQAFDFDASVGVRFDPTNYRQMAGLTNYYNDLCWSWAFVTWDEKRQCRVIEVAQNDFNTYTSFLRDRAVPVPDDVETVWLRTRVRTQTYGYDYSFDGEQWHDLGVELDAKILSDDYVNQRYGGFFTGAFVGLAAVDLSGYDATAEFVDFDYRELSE

purified protein = substrate: O=[N+]([O-])c1ccc(O[C@@H]2OC[C@@H](O)[C@H](O)[C@H]2O)cc1; experiment: purified protein; type: biochemical, Bifidobacterium animalis; settings: 50 mM Na-acetate pH 5.2, 40 °C, 0.25–80 mM pNPX, 7.8 nM enzyme, error printed as ± 4.6

Ki (BXA43): 29.6 ± 8.5 mM
Molecule: O=[N+]([O-])c1ccc(O[C@@H]2OC[C@@H](O)[C@H](O)[C@H]2O)cc1 [para-nitrophenyl-β-D-xylopyranoside]

B1: BXA43 (Bifidobacterium animalis subsp. lactis AD011) (protein)
chain: T1 sequence (B8DTK7 1-541)
notes: full-length ORF 541 residues, C-terminal His-tag, pET24(+), E. coli BL21(DE3); theoretical mass 61,774 Da, about 62 kDa on SDS-PAGE
Km (purified protein): 15.6 ± 4.2 mM | kcat (purified protein): 60.6 ± 10.8 s⁻¹
